Data on 36 sequences can be found in the Immune Epitope Database (IEDB).

Targets include HLA-A*03:01; HLA-A*11:01; HLA-A*31:01; HLA-A*33:01; HLA-A*68:01.
Experiment in all cases: IEDB peptide-MHC binding, purified MHC/competitive/radioactivity; filed as Kd, often an IC50 or EC50 that approximates it; ≥ and ≤ were set here for values at or beyond the usual limits of such assays
[1] abbreviates: source organism: SARS coronavirus Tor2.
Where [2] appears, read: source organism: Vaccinia virus WR.
[3] abbreviates: source organism: Mammarenavirus juninense.
Where [4] appears, read: source organism: Mammarenavirus guanaritoense.
Where [5] appears, read: source organism: Dengue virus 1 Brazil/97-11/1997.
Setting [6] is: source organism: Dengue virus 4 Philippines/H241/1956.
[7] abbreviates: source organism: Dengue virus 2 Jamaica/1409/1983.
[8] abbreviates: source organism: Dengue virus 3 Martinique/1243/1999.
Setting [9] is: source organism: Dengue virus 2 Peru/IQT2913/1996.
The mark [10] stands for this setting: source organism: Lassa virus Josiah.

On to AAISDYDYY, for which the Kd is 0.698 µM with HLA-A*03:01 (setting [1]); 1.1 µM with HLA-A*11:01 (setting [1]); 17.5 µM in the assay with HLA-A*31:01 (setting [1]); no less than 77.7 µM in the assay with HLA-A*33:01 (setting [1]); 4.81 µM with HLA-A*68:01 (setting [1]).

As for AAVTLNRIK, the Kd with HLA-A*03:01 (setting [2]) is no less than 34.8 µM; with HLA-A*11:01 (setting [2]), 4.76 µM; in the assay with HLA-A*31:01 (setting [2]), 9.3 µM; with HLA-A*33:01 (setting [2]), no less than 27.1 µM; with HLA-A*68:01 (setting [2]) it was 3.16 µM.

Take AFDISVNASK: the Kd with HLA-A*03:01 (setting [2]) was 0.593 µM; with HLA-A*11:01 (setting [2]) it was 1.23 µM; with HLA-A*31:01 (setting [2]) it was 1.66 µM; in the assay with HLA-A*33:01 (setting [2]), no less than 32.3 µM; in the assay with HLA-A*68:01 (setting [2]), 1.04 µM.

Consider AISKLGINY, for which the Kd with HLA-A*03:01 (setting [2]) amounted to 0.178 µM; with HLA-A*11:01 (setting [2]), 0.022 µM; with HLA-A*31:01 (setting [2]) it was 2.74 µM; in the assay with HLA-A*33:01 (setting [2]), 8.45 µM; with HLA-A*68:01 (setting [2]), 1.34 µM.

For ALCTFLLNK, the Kd with HLA-A*03:01 (setting [1]) is 0.000778 µM; in the assay with HLA-A*11:01 (setting [1]) it was 0.00274 µM; in the assay with HLA-A*31:01 (setting [1]) it was 0.352 µM; with HLA-A*33:01 (setting [1]), 6.67 µM; with HLA-A*68:01 (setting [1]), 1.05 µM.

Consider ALEYLSELK, for which the Kd with HLA-A*03:01 (setting [2]) was 0.988 µM; in the assay with HLA-A*11:01 (setting [2]) it was 0.178 µM; in the assay with HLA-A*31:01 (setting [2]), 8.55 µM; in the assay with HLA-A*33:01 (setting [2]) it was no less than 77.7 µM; with HLA-A*68:01 (setting [2]), 3.48 µM.

ALLRALRLTK: the dissociation constant (Kd) with HLA-A*03:01 (setting [1]) was 0.00317 µM; with HLA-A*11:01 (setting [1]), 0.0245 µM; with HLA-A*31:01 (setting [1]) it was 0.233 µM; with HLA-A*33:01 (setting [1]), no less than 70 µM; in the assay with HLA-A*68:01 (setting [1]) it was 1.79 µM.

As to ALNHTKKWK, the Kd was 0.784 µM with HLA-A*03:01 (setting [1]); 5.64 µM in the assay with HLA-A*11:01 (setting [1]); 0.528 µM with HLA-A*31:01 (setting [1]); no less than 77.7 µM with HLA-A*33:01 (setting [1]); no less than 77.7 µM with HLA-A*68:01 (setting [1]).

Regarding ANKQYIHCFR, the Kd is 17.8 µM with HLA-A*03:01 (setting [3]); no less than 46.6 µM in the assay with HLA-A*11:01 (setting [3]); 0.0128 µM with HLA-A*31:01 (setting [3]); 0.13 µM with HLA-A*33:01 (setting [3]); 9.81 µM in the assay with HLA-A*68:01 (setting [3]).

Take AVFKDSFLR: the Kd with HLA-A*03:01 (setting [2]) was 0.0162 µM; in the assay with HLA-A*11:01 (setting [2]), 0.00649 µM; with HLA-A*31:01 (setting [2]), 0.00303 µM; with HLA-A*33:01 (setting [2]), 0.323 µM; in the assay with HLA-A*68:01 (setting [2]) it was 0.000821 µM.

Take CCNWLDRCRH: the Kd in the assay with HLA-A*03:01 (setting [4]) is no less than 70 µM; in the assay with HLA-A*11:01 (setting [4]), no less than 69.7 µM; with HLA-A*31:01 (setting [4]) it was 1.35 µM; with HLA-A*33:01 (setting [4]), 15.9 µM; in the assay with HLA-A*68:01 (setting [4]), no less than 70.1 µM.

Regarding DLISYGGGWR, the Kd with HLA-A*33:01 (setting [5]) amounted to 1.39 µM.

As to DTSEVHWNYK, the Kd with HLA-A*68:01 (setting [6]) is 0.00673 µM.

In the case of EIWTKEGER, in the assay with HLA-A*33:01 (setting [7]), the Kd amounted to 0.0479 µM.

For FLALGFFLRK, the dissociation constant Kd with HLA-A*03:01 (setting [8]) amounted to 0.0291 µM.

FLMSGRGIGK: the Kd with HLA-A*03:01 (setting [9]) turned out to be 0.00497 µM; with HLA-A*11:01 (setting [9]), 0.0752 µM.

For FTVKLGGVFH, the Kd with HLA-A*03:01 (setting [4]) is 14.8 µM; with HLA-A*31:01 (setting [4]) it was 0.695 µM; with HLA-A*33:01 (setting [4]), 12.5 µM; with HLA-A*68:01 (setting [4]) it was 0.0274 µM.

ILIKRRQQK: the Kd in the assay with HLA-A*03:01 (source organism: Homo sapiens) worked out at 0.0289 µM.

Consider ISLGLILLK, for which the Kd with HLA-A*03:01 (setting [6]) worked out at 0.0312 µM; with HLA-A*11:01 (setting [6]) it was 0.00121 µM.

Take KLTYQNKVVK: in the assay with HLA-A*03:01 (setting [8]), the Kd worked out at 0.0661 µM.

Take KMLLNRFTTR: the Kd in the assay with HLA-A*31:01 (setting [6]) worked out at 0.00377 µM.

As to LINRFTMKHK, the dissociation constant Kd with HLA-A*03:01 (setting [7]) is 0.0125 µM.

With RICTREEFTR, the Kd with HLA-A*31:01 (setting [5]) is no less than 70 µM.

RMLNILNRRR: the Kd in the assay with HLA-A*31:01 (setting [7]) turned out to be 0.0016 µM.

RTLGRNKKPR: the Kd with HLA-A*31:01 (setting [8]) amounted to 0.00839 µM.

RTYSDPLALK: the Kd with HLA-A*03:01 (setting [8]) came to 0.00361 µM; with HLA-A*11:01 (setting [8]) it was 0.0361 µM; in the assay with HLA-A*68:01 (setting [8]), 0.0293 µM.

As for SFNMLKRAR, the Kd with HLA-A*31:01 (setting [5]) was no less than 34.2 µM; with HLA-A*33:01 (setting [5]), 0.01 µM.

As for SIPPTAGILK, the Kd in the assay with HLA-A*03:01 (setting [6]) worked out at 0.216 µM; in the assay with HLA-A*11:01 (setting [6]) it was 0.0165 µM.

Take SSMVNGVVK: the Kd with HLA-A*11:01 (source organism: Dengue virus 1 Singapore/S275/1990) was 0.0734 µM.

In the case of TSAYLISIFL, the Kd with HLA-A*33:01 (source organism: Lymphocytic choriomeningitis virus (strain WE)) is 2.17 µM.

Turning to TSEHGGRAYR, the Kd in the assay with HLA-A*31:01 (setting [8]) came out at 0.0724 µM.

On to TSFYLISIFL, for which the Kd was 8.08 µM with HLA-A*03:01 (setting [10]) and no less than 31.1 µM with HLA-A*33:01 (setting [10]).

In the case of VLKIVRNMEK, the Kd in the assay with HLA-A*03:01 (setting [7]) turned out to be 0.0828 µM.

Consider VSFLLLAGR, for which, in the assay with HLA-A*11:01 (source organism: Mammarenavirus choriomeningitidis), the Kd is 0.0179 µM.

For the sequence VSILASSLLR, the Kd with HLA-A*11:01 (setting [8]) is 0.514 µM; with HLA-A*31:01 (setting [8]), 0.872 µM; with HLA-A*33:01 (setting [8]), 0.2 µM; with HLA-A*68:01 (setting [8]), 0.468 µM.

In the case of WQLMYFHRR, in the assay with HLA-A*31:01 (setting [5]), the Kd came to 4.41 µM.
